Read-outs that look alike come from different tables or passages of the source. Blank lines part the entries; values can stand above or below the substance they belong to.
Legend:
[1] = target: full length I-A^d/OVA 323-339 MHC class II fusion complex (pJRS165.1) expressed on NSO cells (mouse; chicken) (UniProt P04228); experiment: flow cytometry, FITC-conjugated anti-IA^k control (1:100) on clone NSO/IA^d/OVA.A4
[2] = target: full length I-A^d/OVA 323-339 MHC class II fusion complex (pJRS165.1) expressed on NSO cells (mouse; chicken) (UniProt P04228); experiment: flow cytometry, FITC-conjugated anti-IA^k control (1:100) on clone NSO/IA^d/OVA.B2
[3] = target: full length I-A^d/OVA 323-339 MHC class II fusion complex (pJRS165.1) expressed on NSO cells (mouse; chicken) (UniProt P04228); experiment: flow cytometry, FITC-conjugated anti-IA^k control (1:100) on clone NSO/IA^d/OVA.B4
[4] = target: full length I-A^d/OVA 323-339 MHC class II fusion complex (pJRS165.1) expressed on NSO cells (mouse; chicken) (UniProt P04228); experiment: flow cytometry, FITC-conjugated anti-IA^k control (1:100) on clone NSO/IA^d/OVA.B5
[5] = target: murine Class II MHC molecule I-A^d on A20.1-11 cells (mouse) (UniProt P04228); experiment: flow cytometry, FITC-conjugated anti-IA^k control (1:100) on A20.1 cells (+ control)
[6] = target: T cell receptor of the murine T cell hybridoma DO11.10, specific for OVA 323-339 presented by I-A^d; experiment: cell-based or functional assay
[7] = target: T cell receptor of the murine T cell hybridoma DO11.10, specific for OVA 323-339 presented by I-A^d; experiment: cell-based or functional assay; remark: listed apart in the source
[8] = target: membrane-bound single-chain I-A^d-OVA (SCT1) on transfected NSO cells (mouse (I-A^d); chicken (OVA peptide)); experiment: flow cytometry, FITC-conjugated 10-3.6 control (1:100) on T2 (SCT1-transfectant)
[9] = target: membrane-bound single-chain I-A^d-OVA (SCT1) on transfected NSO cells (mouse (I-A^d); chicken (OVA peptide)); experiment: flow cytometry, FITC-conjugated 10-3.6 control (1:100) on T6 (SCT1-transfectant)
[10] = target: membrane-bound single-chain I-A^d-OVA (SCT1) on transfected NSO cells (mouse (I-A^d); chicken (OVA peptide)); experiment: flow cytometry, FITC-conjugated 10-3.6 control (1:100) on T12 (SCT1-transfectant)
[11] = target: membrane-bound single-chain I-A^d-OVA (SCT1) on transfected NSO cells (mouse (I-A^d); chicken (OVA peptide)); experiment: flow cytometry, FITC-conjugated AMS 32.1 (1:100) on T2 (SCT1-transfectant)
[12] = target: membrane-bound single-chain I-A^d-OVA (SCT1) on transfected NSO cells (mouse (I-A^d); chicken (OVA peptide)); experiment: flow cytometry, FITC-conjugated AMS 32.1 (1:100) on T6 (SCT1-transfectant)
[13] = target: membrane-bound single-chain I-A^d-OVA (SCT1) on transfected NSO cells (mouse (I-A^d); chicken (OVA peptide)); experiment: flow cytometry, FITC-conjugated AMS 32.1 (1:100) on T12 (SCT1-transfectant)
[14] = target: soluble single-chain I-A^d-OVA from insect (SF9) cells (SSC1 gene in pMBSC1.2) (mouse (I-A^d); chicken (OVA peptide)); experiment: I-A^d sandwich ELISA (capture M5/114, detection biotinylated AMS-32.1), cotransfection supernatant 1:2
[15] = target: soluble single-chain I-A^d-OVA from insect (SF9) cells (SSC1 gene in pMBSC1.2) (mouse (I-A^d); chicken (OVA peptide)); experiment: I-A^d sandwich ELISA (capture M5/114, detection biotinylated AMS-32.1), cotransfection supernatant 1:4
[16] = target: soluble single-chain I-A^d-OVA from insect (SF9) cells (SSC1 gene in pMBSC1.2) (mouse (I-A^d); chicken (OVA peptide)); experiment: I-A^d sandwich ELISA (capture M5/114, detection biotinylated AMS-32.1), cotransfection supernatant 1:8
[17] = target: soluble single-chain I-A^d-OVA from insect (SF9) cells (SSC1 gene in pMBSC1.2) (mouse (I-A^d); chicken (OVA peptide)); experiment: I-A^d sandwich ELISA (capture M5/114, detection biotinylated AMS-32.1), supernatant of virus clone C6
[18] = target: soluble single-chain I-A^d-OVA from insect (SF9) cells (SSC1 gene in pMBSC1.2) (mouse (I-A^d); chicken (OVA peptide)); experiment: I-A^d sandwich ELISA (capture M5/114, detection biotinylated AMS-32.1), supernatant of virus clone F8
[19] = target: soluble single-chain I-A^d-OVA from insect (SF9) cells (SSC1 gene in pMBSC1.2) (mouse (I-A^d); chicken (OVA peptide)); experiment: I-A^d sandwich ELISA (capture M5/114, detection biotinylated AMS-32.1), cotransfection supernatant undiluted
[20] = target: soluble single-chain I-A^d-OVA with EE antibody tag (SCE1) secreted by transfected NSO cells (mouse (I-A^d); chicken (OVA peptide)); experiment: I-A^d sandwich ELISA (capture M5/114, detection biotinylated AMS-32.1), undiluted supernatant of E10 (SCE1 transfectant)
[21] = target: soluble single-chain I-A^d-OVA with EE antibody tag (SCE1) secreted by transfected NSO cells (mouse (I-A^d); chicken (OVA peptide)); experiment: I-A^d sandwich ELISA (capture M5/114, detection biotinylated AMS-32.1), undiluted supernatant of E11 (SCE1 transfectant)
[22] = target: Neuron Specific Enolase (NSE) in supernatant of SF9 cells infected with a recombinant Baculovirus; experiment: I-A^d sandwich ELISA (capture M5/114, detection biotinylated AMS-32.1), NSE baculovirus supernatant as negative control
[23] = target: soluble single-chain I-A^d-OVA from insect (SF9) cells (SSC1 gene in pMBSC1.2) (mouse (I-A^d); chicken (OVA peptide)); experiment: I-A^d sandwich ELISA (capture M5/114, detection biotinylated AMS-32.1), sc I-A^d-OVA from insect cell culture (positive control)

Sequence of UniProt P04228 (P04228 24-256, chain 1 of 2): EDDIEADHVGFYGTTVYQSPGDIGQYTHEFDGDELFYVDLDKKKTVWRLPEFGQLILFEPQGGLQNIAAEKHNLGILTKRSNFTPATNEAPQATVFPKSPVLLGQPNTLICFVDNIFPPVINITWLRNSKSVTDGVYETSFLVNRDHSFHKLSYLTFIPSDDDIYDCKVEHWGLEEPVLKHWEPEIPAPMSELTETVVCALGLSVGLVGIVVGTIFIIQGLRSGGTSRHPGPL
Sequence of UniProt P04228 (P01921 28-265, chain 2 of 2, further chain): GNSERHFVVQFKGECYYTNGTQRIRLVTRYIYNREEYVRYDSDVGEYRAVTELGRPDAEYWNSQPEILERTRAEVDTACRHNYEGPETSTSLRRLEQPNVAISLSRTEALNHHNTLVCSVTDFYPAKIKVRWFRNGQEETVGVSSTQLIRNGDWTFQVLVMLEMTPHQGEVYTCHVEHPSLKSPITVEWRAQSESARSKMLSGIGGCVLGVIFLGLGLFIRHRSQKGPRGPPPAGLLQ

Substance: isotype matched FITC-conjugated anti-I-A^k antibody, 10-3.6 (PharMingen)
Mean Fluorescence (mean fluorescence) [8]: 22
Mean Fluorescence (mean fluorescence) [9]: 45.1
Mean Fluorescence (mean fluorescence) [10]: 45.9

Substance: AMS-32.1 anti-IA^d (Pharmingen part number 06032D) (antibody)
Mean Fluorescence (mean fluorescence) [11]: 613
Mean Fluorescence (mean fluorescence) [12]: 418
Mean Fluorescence (mean fluorescence) [13]: 911
Absorbance (405 nm) [14]: 0.524 absorbance
Absorbance (405 nm) [15]: 0.305 absorbance
Absorbance (405 nm) [16]: 0.165 absorbance
Absorbance (405 nm) [17]: 1.56 absorbance
Absorbance (405 nm) [18]: 1.45 absorbance
Absorbance (405 nm) [19]: 0.857 absorbance
Absorbance (405 nm) [20]: 0.781 absorbance
Absorbance (405 nm) [21]: 0.96 absorbance
Absorbance (405 nm) [22]: 0.098 absorbance
Absorbance (405 nm) [23]: 2.44 absorbance

Substance: soluble single-chain I-A^d-OVA from insect (SF9) cells (SSC1 gene in pMBSC1.2) (peptide-MHC)
IL-2 concentration in DO11 super; immobilized sc IA^d-OVA 78 ng/well [6]: 45 U/ml
IL-2 concentration in DO11 super; immobilized sc IA^d-OVA 156 ng/well [6]: 100 U/ml
IL-2 concentration in DO11 super; immobilized sc IA^d-OVA 312 ng/well [6]: 109 U/ml
IL-2 concentration in DO11 super; immobilized sc IA^d-OVA 625 ng/well [6]: 116 U/ml
IL-2 concentration in DO11 super; immobilized sc IA^d-OVA 1250 ng/well [6]: 126 U/ml
IL-2 concentration in DO11 super; immobilized sc IA^d-OVA 2500 ng/well [6]: 143 U/ml
IL-2 concentration in DO11 super; immobilized scIA^d-OVA 39 ng/well (extended dilution) [6]: 0 U/ml
IL-2 concentration in DO11 super; immobilized scIA^d-OVA 78 ng/well (extended dilution) [6]: 17 U/ml
IL-2 concentration in DO11 super; immobilized scIA^d-OVA 156 ng/well (extended dilution) [6]: 24 U/ml
IL-2 concentration in DO11 super; immobilized scIA^d-OVA 312 ng/well (extended dilution) [6]: 35 U/ml
IL-2 concentration in DO11 super; immobilized scIA^d-OVA 625 ng/well (extended dilution) [6]: 38 U/ml
IL-4 concentration in DO11 super; immobilized sc IA^d-OVA 78 ng/well [6]: 7 U/ml
IL-4 concentration in DO11 super; immobilized sc IA^d-OVA 156 ng/well [6]: 10 U/ml
IL-4 concentration in DO11 super; immobilized sc IA^d-OVA 312 ng/well [6]: 16 U/ml
IL-4 concentration in DO11 super; immobilized sc IA^d-OVA 625 ng/well [6]: 15 U/ml
IL-4 concentration in DO11 super; immobilized sc IA^d-OVA 1250 ng/well [6]: 20 U/ml
IL-4 concentration in DO11 super; immobilized sc IA^d-OVA 2500 ng/well [6]: 23 U/ml
IL-r [IL-4] concentration in DO11 super; immobilized scIA^d-OVA 39 ng/well (extended dilution) [6]: 0 U/ml
IL-r [IL-4] concentration in DO11 super; immobilized scIA^d-OVA 78 ng/well (extended dilution) [6]: 0.8 U/ml
IL-r [IL-4] concentration in DO11 super; immobilized scIA^d-OVA 156 ng/well (extended dilution) [6]: 0.9 U/ml
IL-r [IL-4] concentration in DO11 super; immobilized scIA^d-OVA 312 ng/well (extended dilution) [6]: 1.5 U/ml
IL-r [IL-4] concentration in DO11 super; immobilized scIA^d-OVA 625 ng/well (extended dilution) [6]: 2 U/ml

The next lines start with the values.

peak channel fluorescence [1]: 34 peak channel
peak channel fluorescence [2]: 14 peak channel
peak channel fluorescence [3]: 11 peak channel
peak channel fluorescence [4]: 10 peak channel
peak channel fluorescence [5]: 5 peak channel
Substance: FITC-conjugated anti-IA^k antibody (Pharmingen), isotype matched irrelevant antibody

IL-2 ELISA result (Absorbance); antigen presenting cell T2 (SCT1 transfectant) [6]: 0.758 absorbance
IL-2 ELISA result (Absorbance); antigen presenting cell T6 (SCT1 transfectant) [6]: 0.307 absorbance
IL-2 ELISA result (Absorbance); antigen presenting cell T12 (SCT1 transfectant) [7]: 1.03 absorbance
Substance: membrane-bound single-chain I-A^d-OVA (SCT1) on transfected NSO cells (peptide-MHC)

IL-2 ELISA result (Absorbance); A20+OVA 323-339 peptide (positive control) [6]: 1.33 absorbance
IL-2 ELISA result (Absorbance); A20+OVA 323-339 peptide (positive control) [7]: 1.45 absorbance
Substance: OVA 323-339 peptide presented by I-A^d on A20 cells (from UniProt P04228 24-256; P01921 28-265) (peptide-MHC)

Source: patent EP0997477B1
